How the values were obtained:
[1] = target: human cardiac troponin C C84Y (human, UniProt P63316 1-161, C84Y); assay: NMR titration; 1H-15N HSQC spectra at 37 °C of WT or C84Y cTnC in the Ca2+-bound (primed) state, without peptide and with increasing concentrations of peptide (15, 40, 70, 120, 150 and 200 μM); normalized 1H chemical shifts against peptide concentration; settings: both partners purified
[2] = target: human cardiac troponin C, wild type (human, UniProt P63316 1-161); assay: as above; settings: both partners purified

Kd [1]: 66 ± 5.5 µM
Kd [2]: 59 ± 3.6 µM
B1: inhibitory cardiac TnI peptide iTnI128-147 (peptide)
peptide: Ac-LTQKIFDLRGKFKRPTLRRV-NH2
notes: source: synthetic peptide (Genscript, purity higher than 95%)
